From the Immune Epitope Database (IEDB)

Tests used:
[1] = molecular target: HLA-B*08:01; experiment: IEDB peptide-MHC binding, purified MHC/competitive/radioactivity; filed as Kd, often an IC50 or EC50 that approximates it; ≥ and ≤ were set here for values at or beyond the usual limits of such assays
[2] = molecular target: HLA-A*24:02; experiment: IEDB peptide-MHC binding, purified MHC/competitive/fluorescence; ≥ and ≤ were set here for values at or beyond the usual limits of such assays
[3] = molecular target: HLA-A*02:01; experiment: as above
[4] = molecular target: HLA-B*51:01; experiment: IEDB peptide-MHC binding, purified MHC/competitive/radioactivity; filed as Kd, often an IC50 or EC50 that approximates it; ≥ and ≤ were set here for values at or beyond the usual limits of such assays; settings: source organism: Dengue virus 2 Jamaica/1409/1983
[5] = molecular target: HLA-A*11:01; experiment: IEDB peptide-MHC binding, purified MHC/direct/fluorescence; filed as Kd, often an IC50 or EC50 that approximates it; ≥ and ≤ were set here for values at or beyond the usual limits of such assays; settings: source organism: SARS-CoV1
[6] = molecular target: HLA-B*07:02; experiment: as above
[7] = molecular target: HLA-B*58:01; experiment: as above
[8] = molecular target: HLA-B*08:01; experiment: as above; settings: source organism: SARS-CoV1
[9] = molecular target: HLA-B*40:01; experiment: as above
[10] = molecular target: HLA-B*15:01; experiment: as above
[11] = molecular target: HLA-B*27:05; experiment: as above; settings: source organism: Giardia lamblia ATCC 50803
[12] = molecular target: HLA-A*03:01; experiment: as above; settings: source organism: Giardia lamblia ATCC 50803
[13] = molecular target: HLA-A*02:01; experiment: as above; settings: source organism: Giardia lamblia ATCC 50803
[14] = molecular target: HLA-A*01:01; experiment: as above; settings: source organism: Giardia lamblia ATCC 50803
[15] = molecular target: HLA-A*02:01; experiment: IEDB peptide-MHC binding, purified MHC/competitive/radioactivity; filed as Kd, often an IC50 or EC50 that approximates it; ≥ and ≤ were set here for values at or beyond the usual limits of such assays
[16] = molecular target: HLA-A*02:03; experiment: as above
[17] = molecular target: HLA-A*02:01; experiment: IEDB peptide-MHC binding, purified MHC/competitive/fluorescence; filed as Kd, often an IC50 or EC50 that approximates it; ≥ and ≤ were set here for values at or beyond the usual limits of such assays; settings: source organism: Variola virus
[18] = molecular target: HLA-B*35:01; experiment: IEDB peptide-MHC binding, purified MHC/competitive/radioactivity; filed as Kd, often an IC50 or EC50 that approximates it; ≥ and ≤ were set here for values at or beyond the usual limits of such assays
[19] = molecular target: HLA-A*02:06; experiment: as above; settings: source organism: Vaccinia virus WR
[20] = molecular target: HLA-A*26:01; experiment: as above
[21] = molecular target: HLA-A*30:02; experiment: as above
[22] = molecular target: HLA-A*32:01; experiment: as above
[23] = molecular target: HLA-A*30:01; experiment: as above
[24] = molecular target: HLA-A*29:02; experiment: as above
[25] = molecular target: HLA-A*01:01; experiment: as above
[26] = source organism: Sudan ebolavirus
[27] = source organism: Vaccinia virus WR
[28] = source organism: Giardia lamblia ATCC 50803
[29] = source organism: Zaire ebolavirus
[30] = source organism: Dengue virus 4 Philippines/H241/1956
[31] = source organism: Lassa virus Josiah
[32] = source organism: Vaccinia virus
[33] = source organism: Lymphocytic choriomeningitis virus (strain Armstrong)
[34] = source organism: Mammarenavirus lassaense
[35] = source organism: Dengue virus 1 Brazil/97-11/1997

Question: How did the Kd ([1]; source organism: Vaccinia virus Copenhagen) turn out when SIFLIFSII was run?
Answer: The Kd was 858 nM.

Question: What does the source list for LYDRLASTV?
Answer: IC50 [2, 26]: 1320 nM; IC50 [3, 26]: 7480 nM

Question: Which Kd [4] does the source give for MVQADSGCVV here?
Answer: Its Kd is no less than 30500 nM.

Question: LPMLYFLYV was tested. Which Kd [1, 27] did it give?
Answer: Its Kd is 2.51 nM.

Question: What does the source list for NQATTKTTF?
Answer: Kd [5]: ≥ 79900 nM; Kd ([6]; source organism: SARS-CoV1): 19800 nM; Kd ([7]; source organism: SARS-CoV1): 9270 nM; Kd [8]: 7150 nM; Kd ([9]; source organism: SARS-CoV1): ≥ 57300 nM; Kd ([10]; source organism: SARS-CoV1): 203 nM

Question: What does the source list for ATSGYRIAY?
Answer: Kd [6, 28]: ≥ 20000 nM; Kd [11]: ≥ 20000 nM; Kd [7, 28]: 1650 nM; Kd [12]: ≥ 20000 nM; Kd [10, 28]: 45 nM; Kd [13]: ≥ 20000 nM; Kd [14]: 68.7 nM

Question: SKSTDFLDP was tested. Which IC50 [2, 29] did it give?
Answer: The IC50 was no less than 592000 nM.

Question: Which Kd ([1]; source organism: Dengue virus 3 Singapore/8120/1995) does the source give for LAKRFSRGL here?
Answer: The Kd was 962 nM.

Question: Which Kd [1, 27] does the source give for MPTYKHLIM here?
Answer: Its Kd is 0.13 nM.

Question: With KRTLAAMPE as the sequence, how does the IC50 [2, 29] read?
Answer: Its IC50 is 42900 nM.

Question: How did the Kd ([15]; source organism: Homo sapiens) turn out when SLLMWITQCFL was run?
Answer: The Kd was no less than 50000 nM.

Question: With VKPKGKVVDL as the sequence, how does the Kd [1, 30] read?
Answer: Its Kd is 2150 nM.

Question: For RTNDWDFVV, which Kd ([15]; source organism: dengue virus type 2) is on record?
Answer: The Kd was 167 nM.

Question: How did the Kd [16, 30] turn out when GIMAVGLVSL was run?
Answer: Its Kd is 24.1 nM.

Question: And the Kd [1, 30]?
Answer: Its Kd is 1230 nM.

Question: DECEFELAL was tested. Which Kd ([9]; source organism: Mycobacterium tuberculosis) did it give?
Answer: Its Kd is 803 nM.

Question: Which Kd [17] does the source give for QLVKGFERFQ here?
Answer: Its Kd is 634 nM.

Question: How did the Kd [15, 31] turn out when IMKNHLRDI was run?
Answer: Its Kd is 12500 nM.

Question: How did the IC50 [2, 32] turn out when FGNLSPETL was run?
Answer: Its IC50 is 57800 nM.

Question: And the IC50 [3, 32]?
Answer: The IC50 was 59500 nM.

Question: QVKDEKLNL was tested. Which Kd [17] did it give?
Answer: The Kd was 324 nM.

Question: For INRKGKVIGL, which Kd [1, 30] is on record?
Answer: The Kd was 3660 nM.

Question: How did the Kd [15, 31] turn out when LMTLKDAML was run?
Answer: The Kd was 893 nM.

Question: LAVSGVYPL was tested. Which Kd ([18]; source organism: Dengue virus 1 Singapore/S275/1990) did it give?
Answer: Its Kd is 83.2 nM.

Question: For FLNISWFYI, which Kd [16, 27] is on record?
Answer: The Kd was 1.1 nM.

Question: What about the Kd [19] of the same sequence?
Answer: The Kd was 0.667 nM.

Question: And the Kd [15, 27]?
Answer: The Kd was 0.0142 nM.

Question: With WALCEALTL as the sequence, how does the Kd ([18]; source organism: Dengue virus 2 Jamaica/1409/1983) read?
Answer: Its Kd is 641 nM.

Question: How did the Kd [20, 33] turn out when FTSDVKAAVI was run?
Answer: Its Kd is 6430 nM.

Question: And the Kd [21, 33]?
Answer: Its Kd is no less than 63000 nM.

Question: And the Kd [22, 33]?
Answer: Its Kd is no less than 69900 nM.

Question: What about the Kd [23, 33] of the same sequence?
Answer: The Kd was 4970 nM.

Question: What about the Kd [24, 33] of the same sequence?
Answer: Its Kd is no less than 30600 nM.

Question: What about the Kd [25, 33] of the same sequence?
Answer: Its Kd is 431 nM.

Question: How did the IC50 [2, 29] turn out when EDPSSGYYS was run?
Answer: The IC50 was no less than 185000 nM.

Question: How did the Kd [20, 34] turn out when FYSQESPQSY was run?
Answer: The Kd was 380 nM.

Question: And the Kd [21, 34]?
Answer: The Kd was 2930 nM.

Question: What about the Kd [22, 34] of the same sequence?
Answer: The Kd was 9400 nM.

Question: And the Kd [23, 34]?
Answer: Its Kd is no less than 49500 nM.

Question: What about the Kd [24, 34] of the same sequence?
Answer: Its Kd is 1.76 nM.

Question: What about the Kd [25, 34] of the same sequence?
Answer: Its Kd is 758 nM.

Question: With EAKRKLTEL as the sequence, how does the Kd [1, 27] read?
Answer: Its Kd is 2.45 nM.

Question: How did the Kd [1, 27] turn out when SIRYRQRLI was run?
Answer: Its Kd is 218 nM.

Question: SIVSPFIPLL was tested. Which Kd ([15]; source organism: Hepatitis B virus) did it give?
Answer: The Kd was no less than 25000 nM.

Question: For LLGCAANWI, which Kd ([15]; source organism: Hepatitis B virus subtype ayw) is on record?
Answer: The Kd was no less than 5000 nM.

Question: How did the Kd [1, 35] turn out when EARKTFVEL was run?
Answer: The Kd was 97.1 nM.

Question: Which Kd [1, 27] does the source give for EKIIHFLTI here?
Answer: The Kd was 5.04 nM.

Question: With MLLCHKPTL as the sequence, how does the Kd [1, 27] read?
Answer: Its Kd is 18.7 nM.

Question: With SIHAHHQWM as the sequence, how does the Kd [1, 35] read?
Answer: The Kd was 349 nM.
